# T1: ARHGEF11, O15085
# T1 sequence (O15085 42-136, limits assumed, looked up): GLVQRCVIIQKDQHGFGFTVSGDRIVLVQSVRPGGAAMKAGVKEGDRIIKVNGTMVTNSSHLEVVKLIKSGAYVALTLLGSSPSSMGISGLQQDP
# T2: GRIP1_5, Q9Y3R0
# T2 sequence (Q9Y3R0 568-668, limits assumed, looked up): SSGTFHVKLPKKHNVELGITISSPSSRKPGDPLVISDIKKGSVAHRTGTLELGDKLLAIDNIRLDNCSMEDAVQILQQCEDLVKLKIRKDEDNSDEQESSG
# T3: LIN7B, Q9HAP6
# T3 sequence (Q9HAP6 88-185, limits assumed, looked up): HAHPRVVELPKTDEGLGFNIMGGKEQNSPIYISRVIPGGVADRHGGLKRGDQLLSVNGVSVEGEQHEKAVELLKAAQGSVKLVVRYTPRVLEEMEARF
# T4: APBA1_1, Q02410
# T4 sequence (Q02410 651-752, limits assumed, looked up): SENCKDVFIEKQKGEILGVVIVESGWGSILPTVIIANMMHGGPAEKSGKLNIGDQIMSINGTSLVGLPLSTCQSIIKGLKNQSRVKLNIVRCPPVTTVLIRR
# T5: PARD3B_1, Q8TEW8
# T5 sequence (Q8TEW8 196-299, limits assumed, looked up): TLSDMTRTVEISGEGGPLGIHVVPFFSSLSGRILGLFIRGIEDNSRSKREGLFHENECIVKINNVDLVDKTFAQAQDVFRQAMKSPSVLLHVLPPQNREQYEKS
# T6: TX1BP3, O14907
# T6 sequence (O14907 10-122, limits assumed, looked up): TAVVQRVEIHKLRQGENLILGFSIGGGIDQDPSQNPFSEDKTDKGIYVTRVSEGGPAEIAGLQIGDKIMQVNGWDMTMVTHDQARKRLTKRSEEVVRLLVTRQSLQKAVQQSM
# T7: DLG3_2, Q92796
# T7 sequence (Q92796 221-321, limits assumed, looked up): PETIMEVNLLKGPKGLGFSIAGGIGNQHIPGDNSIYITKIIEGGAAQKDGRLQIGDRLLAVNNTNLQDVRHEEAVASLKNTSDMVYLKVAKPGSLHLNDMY
# T8: PDZRN3_1, Q9UPQ7
# T8 sequence (Q9UPQ7 244-349, limits assumed, looked up): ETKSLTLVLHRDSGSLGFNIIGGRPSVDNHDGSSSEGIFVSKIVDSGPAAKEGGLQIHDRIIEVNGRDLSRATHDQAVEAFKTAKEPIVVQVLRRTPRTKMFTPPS
# T9: RAPGEF6, Q8TEU7
# T9 sequence (Q8TEU7 525-625, limits assumed, looked up): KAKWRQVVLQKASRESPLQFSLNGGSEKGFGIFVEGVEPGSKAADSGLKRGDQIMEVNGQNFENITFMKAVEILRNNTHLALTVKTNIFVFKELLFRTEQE
# T10: GRIP1_3, Q9Y3R0
# T10 sequence (Q9Y3R0 247-346, limits assumed, looked up): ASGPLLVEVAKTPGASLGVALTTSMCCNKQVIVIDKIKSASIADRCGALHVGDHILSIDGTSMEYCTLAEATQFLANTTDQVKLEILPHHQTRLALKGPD
# T11: SNTG2, Q9NY99
# T11 sequence (Q9NY99 68-166, limits assumed, looked up): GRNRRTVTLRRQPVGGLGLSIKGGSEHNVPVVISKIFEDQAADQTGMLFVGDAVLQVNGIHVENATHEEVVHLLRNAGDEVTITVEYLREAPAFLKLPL
# T12: DVL3, Q92997
# T12 sequence (Q92997 244-331, limits assumed, looked up): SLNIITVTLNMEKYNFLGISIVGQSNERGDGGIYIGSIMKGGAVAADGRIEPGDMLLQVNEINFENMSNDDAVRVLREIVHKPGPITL
# T13: APBA1_2, Q02410
# T13 sequence (Q02410 742-832, limits assumed, looked up): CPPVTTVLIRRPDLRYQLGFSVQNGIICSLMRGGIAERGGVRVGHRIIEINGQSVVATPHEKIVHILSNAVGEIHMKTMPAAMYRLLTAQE
# T14: PDZD7_3, Q9H5P4
# T14 sequence (Q9H5P4 857-944, limits assumed, looked up): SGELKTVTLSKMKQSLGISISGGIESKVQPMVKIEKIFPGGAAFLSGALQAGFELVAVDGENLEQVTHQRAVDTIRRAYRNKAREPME
# Key:
# Assay in all cases: holdup assay
# Parameters in all cases: key: below the threshold = too weak to quantify, mostly under pKd 3.1 to 4
# Conditions in all cases: plain residues with an end cap or a label only (N-terminal biotin on a linker: ahx)
# ARHGEF11, O15085 = target: T1, ARHGEF11, O15085
# LNX1_3, Q8TBB1 = target: LNX1_3, Q8TBB1
# Sequence of LNX1_3, Q8TBB1 (Q8TBB1 500-596): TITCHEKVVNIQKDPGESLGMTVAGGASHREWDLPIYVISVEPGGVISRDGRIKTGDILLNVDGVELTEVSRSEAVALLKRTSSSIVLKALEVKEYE
# GRIP1_5, Q9Y3R0 = target: T2, GRIP1_5, Q9Y3R0
# LNX1_1, Q8TBB1 = target: LNX1_1, Q8TBB1
# Sequence of LNX1_1, Q8TBB1 (Q8TBB1 261-371): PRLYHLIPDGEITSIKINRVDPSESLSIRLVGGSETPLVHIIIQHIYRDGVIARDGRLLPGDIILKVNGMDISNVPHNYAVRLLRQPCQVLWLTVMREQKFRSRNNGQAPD
# LIN7B, Q9HAP6 = target: T3, LIN7B, Q9HAP6
# GRIP2_4, Q9C0E4 = target: GRIP2_4, Q9C0E4
# Sequence of GRIP2_4, Q9C0E4 (Q9C0E4 446-548): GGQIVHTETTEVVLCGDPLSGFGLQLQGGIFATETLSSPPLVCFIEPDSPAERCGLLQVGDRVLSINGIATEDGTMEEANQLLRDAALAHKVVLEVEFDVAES
# APBA1_1, Q02410 = target: T4, APBA1_1, Q02410
# PARD3B_1, Q8TEW8 = target: T5, PARD3B_1, Q8TEW8
# TX1BP3, O14907 = target: T6, TX1BP3, O14907
# FRMPD3, Q5JV73 = target: FRMPD3, Q5JV73
# Sequence of FRMPD3, Q5JV73 (Q5JV73 12-100): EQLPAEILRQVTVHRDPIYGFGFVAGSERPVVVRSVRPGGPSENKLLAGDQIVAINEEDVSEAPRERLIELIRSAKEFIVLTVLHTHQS
# Inadl_4, Q8NI35 = target: Inadl_4, Q8NI35
# Sequence of Inadl_4, Q8NI35 (Q8NI35 547-651): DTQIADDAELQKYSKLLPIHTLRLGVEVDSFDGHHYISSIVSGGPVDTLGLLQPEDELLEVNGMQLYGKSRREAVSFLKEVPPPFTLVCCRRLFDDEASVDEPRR
# DLG3_2, Q92796 = target: T7, DLG3_2, Q92796
# PDZRN3_1, Q9UPQ7 = target: T8, PDZRN3_1, Q9UPQ7
# SCRIB_2, Q14160 = target: SCRIB_2, Q14160
# Sequence of SCRIB_2, Q14160 (Q14160 857-960): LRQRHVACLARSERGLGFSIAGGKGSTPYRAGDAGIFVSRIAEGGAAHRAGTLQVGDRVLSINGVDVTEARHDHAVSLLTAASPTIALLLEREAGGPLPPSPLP
# RAPGEF6, Q8TEU7 = target: T9, RAPGEF6, Q8TEU7
# GRIP1_3, Q9Y3R0 = target: T10, GRIP1_3, Q9Y3R0
# SNTG2, Q9NY99 = target: T11, SNTG2, Q9NY99
# PARD3_3, Q8TEW0 = target: PARD3_3, Q8TEW0
# Sequence of PARD3_3, Q8TEW0 (Q8TEW0 582-685): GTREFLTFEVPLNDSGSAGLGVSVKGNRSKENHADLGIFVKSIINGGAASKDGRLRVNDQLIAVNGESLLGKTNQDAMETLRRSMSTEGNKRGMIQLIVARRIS
# DVL3, Q92997 = target: T12, DVL3, Q92997
# GRASP, Q7Z6J2 = target: GRASP, Q7Z6J2
# Sequence of GRASP, Q7Z6J2 (Q7Z6J2 96-193): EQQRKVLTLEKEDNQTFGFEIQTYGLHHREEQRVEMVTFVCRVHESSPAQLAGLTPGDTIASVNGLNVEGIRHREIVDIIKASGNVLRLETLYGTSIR
# GRIP2_5, Q9C0E4 = target: GRIP2_5, Q9C0E4
# Sequence of GRIP2_5, Q9C0E4 (Q9C0E4 544-642): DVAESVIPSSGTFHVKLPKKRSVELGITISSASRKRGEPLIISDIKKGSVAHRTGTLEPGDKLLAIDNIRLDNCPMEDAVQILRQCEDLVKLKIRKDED
# APBA1_2, Q02410 = target: T13, APBA1_2, Q02410
# PDZD7_3, Q9H5P4 = target: T14, PDZD7_3, Q9H5P4
Binder,"pKd (ARHGEF11, O15085)","pKd (LNX1_3, Q8TBB1)","pKd (GRIP1_5, Q9Y3R0)","pKd (LNX1_1, Q8TBB1)","pKd (LIN7B, Q9HAP6)","pKd (GRIP2_4, Q9C0E4)","pKd (APBA1_1, Q02410)","pKd (PARD3B_1, Q8TEW8)","pKd (TX1BP3, O14907)","pKd (FRMPD3, Q5JV73)","pKd (Inadl_4, Q8NI35)","pKd (DLG3_2, Q92796)","pKd (PDZRN3_1, Q9UPQ7)","pKd (SCRIB_2, Q14160)","pKd (RAPGEF6, Q8TEU7)","pKd (GRIP1_3, Q9Y3R0)","pKd (SNTG2, Q9NY99)","pKd (PARD3_3, Q8TEW0)","pKd (DVL3, Q92997)","pKd (GRASP, Q7Z6J2)",other results
"PKMKLNETSF [SHKBP1, Q8TBC3]",below the threshold,below the threshold,below the threshold,below the threshold,below the threshold,below the threshold,below the threshold,below the threshold,below the threshold,below the threshold,below the threshold,below the threshold,below the threshold,below the threshold,below the threshold,below the threshold,below the threshold,below the threshold,below the threshold,3.88,"pKd (GRIP2_5, Q9C0E4): below the threshold; pKd (APBA1_2, Q02410): below the threshold; pKd (PDZD7_3, Q9H5P4): below the threshold"
"ADENEQVSAV [RAPGEF6, Q8TEU7]",4.06,below the threshold,below the threshold,below the threshold,below the threshold,below the threshold,below the threshold,below the threshold,below the threshold,below the threshold,below the threshold,4,3.79,below the threshold,below the threshold,below the threshold,below the threshold,below the threshold,below the threshold,4.66,"pKd (GRIP2_5, Q9C0E4): below the threshold; pKd (APBA1_2, Q02410): 3.94; pKd (PDZD7_3, Q9H5P4): 3.83"
"YNSFLSVTTV [PDZRN3, Q9UPQ7]",4.06,below the threshold,below the threshold,3.8,below the threshold,below the threshold,below the threshold,below the threshold,below the threshold,below the threshold,below the threshold,4.27,below the threshold,3.69,below the threshold,below the threshold,3.81,below the threshold,below the threshold,4.15,"pKd (GRIP2_5, Q9C0E4): below the threshold; pKd (APBA1_2, Q02410): below the threshold; pKd (PDZD7_3, Q9H5P4): 5.58"

# — paper PMC9482650, “Quantitative fragmentomics allow affinity mapping of interactomes” (Nature Communications, 2022)
